Source: patent US20110166062A1 (INDIANA UNIVERSITY RESEARCH AND TECHNOLOGY, published 2011)
Bridges are numbered along the chain shown (N, C = ends). Where no end group is shown, it is not given here. [ ]: non-standard residue; d: D form. The star is where a group is joined. PEG 40 kDa = PEG (40 kDa) covalently attached to Cys; Myristoyl = CCCCCCCCCCCCCC(=O)*; Abu = CC[C@H](N)C(=O)O; Aib = CC(C)(N)C(=O)O

B1: mt-176 (peptide)
peptide: Y[Aib]QGTFISDYSIYLDEQAAKEFVNWLLAGGPSSGAPPPSC-NH2
modifications: lactam 16-20
B2: mt-194 (peptide)
peptide: [Aib]QGTFTSDYSIYLDEEAVRLFVNWLLAGGPSSGAPPPS-NH2
modifications: N-terminus assumed
SMILES: CC[C@H](C)[C@H](NC(=O)[C@H](CO)NC(=O)[C@H](Cc1ccc(O)cc1)NC(=O)[C@H](CC(=O)O)NC(=O)[C@H](CO)NC(=O)[C@@H](NC(=O)[C@H](Cc1ccccc1)NC(=O)[C@@H](NC(=O)CNC(=O)[C@H](CCC(N)=O)NC(=O)C(C)(C)N)[C@@H](C)O)[C@@H](C)O)C(=O)N[C@@H](Cc1ccc(O)cc1)C(=O)N[C@@H](CC(C)C)C(=O)N[C@@H](CC(=O)O)C(=O)N[C@@H](CCC(=O)O)C(=O)N[C@@H](CCC(=O)O)C(=O)N[C@@H](C)C(=O)N[C@H](C(=O)N[C@@H](CCCNC(=N)N)C(=O)N[C@@H](CC(C)C)C(=O)N[C@@H](Cc1ccccc1)C(=O)N[C@H](C(=O)N[C@@H](CC(N)=O)C(=O)N[C@@H](Cc1c[nH]c2ccccc12)C(=O)N[C@@H](CC(C)C)C(=O)N[C@@H](CC(C)C)C(=O)N[C@@H](C)C(=O)NCC(=O)NCC(=O)N1CCC[C@H]1C(=O)N[C@@H](CO)C(=O)N[C@@H](CO)C(=O)NCC(=O)N[C@@H](C)C(=O)N1CCC[C@H]1C(=O)N1CCC[C@H]1C(=O)N1CCC[C@H]1C(=O)N[C@@H](CO)C(N)=O)C(C)C)C(C)C
B3: mt-192 (peptide)
peptide: FTSDYSIYLDEQAAKEFVNWLLAGGPSSGAPPPS-NH2
modifications: not fully specified
B4: mt-172 (peptide)
peptide: Y[Aib]QGTFTSDYSIYLDEQAAKEFVC(PEG 40 kDa)WLLAG-NH2
modifications: lactam 16-20
B5: mt-182 (peptide)
peptide: Y[Aib]QGTFISDYSIYLDEQAAKEFVNWLLAGGPSSGAPPPSC(PEG 40 kDa)-NH2
modifications: lactam 16-20
B6: mt-175 (peptide)
peptide: Y[Aib]QGTFTSDYSIYLDEQAAKEFVC(PEG 40 kDa)WLLAGGPSSGAPPPS-NH2
modifications: lactam 16-20
B7: mt-197 (peptide)
peptide: GTFTSDYSIYLDEQAAKEFVNWLLAG-NH2
modifications: lactam 13-17; N-terminus assumed
SMILES: CC[C@H](C)[C@H](NC(=O)[C@H](CO)NC(=O)[C@H](Cc1ccc(O)cc1)NC(=O)[C@H](CC(=O)O)NC(=O)[C@H](CO)NC(=O)[C@@H](NC(=O)[C@H](Cc1ccccc1)NC(=O)[C@@H](NC(=O)CN)[C@@H](C)O)[C@@H](C)O)C(=O)N[C@@H](Cc1ccc(O)cc1)C(=O)N[C@@H](CC(C)C)C(=O)N[C@@H](CC(=O)O)C(=O)N[C@H]1CCC(=O)NCCCC[C@@H](C(=O)N[C@@H](CCC(=O)O)C(=O)N[C@@H](Cc2ccccc2)C(=O)N[C@H](C(=O)N[C@@H](CC(N)=O)C(=O)N[C@@H](Cc2c[nH]c3ccccc23)C(=O)N[C@@H](CC(C)C)C(=O)N[C@@H](CC(C)C)C(=O)N[C@@H](C)C(=O)NCC(N)=O)C(C)C)NC(=O)[C@H](C)NC(=O)[C@H](C)NC(=O)[C@H](CCC(N)=O)NC1=O
B8: mt-174 (peptide)
peptide: Y[Aib]EGTFTSDYSIYLDEQAAKEFVNWLLAGGPSSGAPPPSC-NH2
modifications: lactam 16-20; N-terminus assumed
SMILES: CC[C@H](C)[C@H](NC(=O)[C@H](CO)NC(=O)[C@H](Cc1ccc(O)cc1)NC(=O)[C@H](CC(=O)O)NC(=O)[C@H](CO)NC(=O)[C@@H](NC(=O)[C@H](Cc1ccccc1)NC(=O)[C@@H](NC(=O)CNC(=O)[C@H](CCC(=O)O)NC(=O)C(C)(C)NC(=O)[C@@H](N)Cc1ccc(O)cc1)[C@@H](C)O)[C@@H](C)O)C(=O)N[C@@H](Cc1ccc(O)cc1)C(=O)N[C@@H](CC(C)C)C(=O)N[C@@H](CC(=O)O)C(=O)N[C@H]1CCC(=O)NCCCC[C@@H](C(=O)N[C@@H](CCC(=O)O)C(=O)N[C@@H](Cc2ccccc2)C(=O)N[C@H](C(=O)N[C@@H](CC(N)=O)C(=O)N[C@@H](Cc2c[nH]c3ccccc23)C(=O)N[C@@H](CC(C)C)C(=O)N[C@@H](CC(C)C)C(=O)N[C@@H](C)C(=O)NCC(=O)NCC(=O)N2CCC[C@H]2C(=O)N[C@@H](CO)C(=O)N[C@@H](CO)C(=O)NCC(=O)N[C@@H](C)C(=O)N2CCC[C@H]2C(=O)N2CCC[C@H]2C(=O)N2CCC[C@H]2C(=O)N[C@@H](CO)C(=O)N[C@@H](CS)C(N)=O)C(C)C)NC(=O)[C@H](C)NC(=O)[C@H](C)NC(=O)[C@H](CCC(N)=O)NC1=O
B9: mt-324 (peptide)
peptide: Y[Aib]QGTFSSDYSIYLDKQAA[Aib]EFVNWLLAGGPSSGAPPPSC-NH2
modifications: N-terminus assumed
SMILES: CC[C@H](C)[C@H](NC(=O)[C@H](CO)NC(=O)[C@H](Cc1ccc(O)cc1)NC(=O)[C@H](CC(=O)O)NC(=O)[C@H](CO)NC(=O)[C@H](CO)NC(=O)[C@H](Cc1ccccc1)NC(=O)[C@@H](NC(=O)CNC(=O)[C@H](CCC(N)=O)NC(=O)C(C)(C)NC(=O)[C@@H](N)Cc1ccc(O)cc1)[C@@H](C)O)C(=O)N[C@@H](Cc1ccc(O)cc1)C(=O)N[C@@H](CC(C)C)C(=O)N[C@@H](CC(=O)O)C(=O)N[C@@H](CCCCN)C(=O)N[C@@H](CCC(N)=O)C(=O)N[C@@H](C)C(=O)N[C@@H](C)C(=O)NC(C)(C)C(=O)N[C@@H](CCC(=O)O)C(=O)N[C@@H](Cc1ccccc1)C(=O)N[C@H](C(=O)N[C@@H](CC(N)=O)C(=O)N[C@@H](Cc1c[nH]c2ccccc12)C(=O)N[C@@H](CC(C)C)C(=O)N[C@@H](CC(C)C)C(=O)N[C@@H](C)C(=O)NCC(=O)NCC(=O)N1CCC[C@H]1C(=O)N[C@@H](CO)C(=O)N[C@@H](CO)C(=O)NCC(=O)N[C@@H](C)C(=O)N1CCC[C@H]1C(=O)N1CCC[C@H]1C(=O)N1CCC[C@H]1C(=O)N[C@@H](CO)C(=O)N[C@@H](CS)C(N)=O)C(C)C
B10: mt-339 (peptide)
peptide: Y[Aib]EGTFTSDYSIYLDKQAA[Aib]EFVNWLLAGGPSSGAPPPSK(Myristoyl)C-NH2
B11: mt-340 (peptide)
peptide: Y[Aib]EGTFTSDYSIYLDKQAA[Aib]EFVNWLLAGGPSSGAPPPSKC-NH2
B12: mt-331 (peptide)
peptide: Y[Aib]EGTFTSDYSIYLDKQAA[Aib]EFVC(PEG 40 kDa)WLLAGGPSSGAPPPSK-NH2
modifications: also: PEG linkage structure not given here
B13: mt-325 (peptide)
peptide: Y[Aib]QGTF[Abu]SDYSIYLDKQAA[Aib]EFVNWLLAGGPSSGAPPPSC-NH2
modifications: N-terminus assumed
SMILES: CC[C@H](NC(=O)[C@H](Cc1ccccc1)NC(=O)[C@@H](NC(=O)CNC(=O)[C@H](CCC(N)=O)NC(=O)C(C)(C)NC(=O)[C@@H](N)Cc1ccc(O)cc1)[C@@H](C)O)C(=O)N[C@@H](CO)C(=O)N[C@@H](CC(=O)O)C(=O)N[C@@H](Cc1ccc(O)cc1)C(=O)N[C@@H](CO)C(=O)N[C@H](C(=O)N[C@@H](Cc1ccc(O)cc1)C(=O)N[C@@H](CC(C)C)C(=O)N[C@@H](CC(=O)O)C(=O)N[C@@H](CCCCN)C(=O)N[C@@H](CCC(N)=O)C(=O)N[C@@H](C)C(=O)N[C@@H](C)C(=O)NC(C)(C)C(=O)N[C@@H](CCC(=O)O)C(=O)N[C@@H](Cc1ccccc1)C(=O)N[C@H](C(=O)N[C@@H](CC(N)=O)C(=O)N[C@@H](Cc1c[nH]c2ccccc12)C(=O)N[C@@H](CC(C)C)C(=O)N[C@@H](CC(C)C)C(=O)N[C@@H](C)C(=O)NCC(=O)NCC(=O)N1CCC[C@H]1C(=O)N[C@@H](CO)C(=O)N[C@@H](CO)C(=O)NCC(=O)N[C@@H](C)C(=O)N1CCC[C@H]1C(=O)N1CCC[C@H]1C(=O)N1CCC[C@H]1C(=O)N[C@@H](CO)C(=O)N[C@@H](CS)C(N)=O)C(C)C)[C@@H](C)CC

Each binder was assayed against GLP-1 receptor (UniProt P43220 24-463, limits assumed) (assay: cell-based or functional assay).

First: B1
Second: B2
The “EC50” value of the first is 2.1-fold higher: 8.69 nM for the first, 4.16 nM for the second.

First: B3
Second: B4
The “EC50” value of the first is 55-fold higher: 47 nM for the first, 0.859 nM for the second.

First: B5
Second: B6
The “EC50” value of the first is 45-fold higher: 10 nM for the first, 0.22 nM for the second.

Going from B7 to B8, the “EC50” value falls from 35.3 nM to 0.017 nM (2100-fold).

Compared with B2, B3 is lower in relative activity: 0.63% for the first, 0.06% for the second.

First: B4
Second: B6
The relative activity of the first is lower: 3.43% for the first, 5.91% for the second.

First: B7
Second: B8
The relative activity of the first is lower: 0.07% for the first, 118% for the second.

These binders were tested against glucagon receptor (UniProt P47871 26-477, limits assumed) (assay: cell-based or functional assay).
Target sequence in this assay (P47871 26-477 limits assumed): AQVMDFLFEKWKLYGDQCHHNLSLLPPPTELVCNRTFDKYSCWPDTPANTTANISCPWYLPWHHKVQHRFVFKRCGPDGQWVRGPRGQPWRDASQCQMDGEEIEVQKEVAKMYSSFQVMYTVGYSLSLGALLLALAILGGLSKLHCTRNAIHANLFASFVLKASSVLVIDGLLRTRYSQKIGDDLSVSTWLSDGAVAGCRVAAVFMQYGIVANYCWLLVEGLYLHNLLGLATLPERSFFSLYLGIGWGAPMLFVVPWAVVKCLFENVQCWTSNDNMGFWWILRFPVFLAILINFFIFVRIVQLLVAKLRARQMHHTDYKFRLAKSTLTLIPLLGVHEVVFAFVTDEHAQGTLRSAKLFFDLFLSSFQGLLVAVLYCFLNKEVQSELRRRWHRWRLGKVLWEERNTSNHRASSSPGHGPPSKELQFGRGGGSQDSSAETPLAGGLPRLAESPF

Going from B1 to B4, the “EC50” value rises from 0.141 nM to 9.16 nM (65-fold).

Compared with B6, B7 is 20-fold higher in “EC50” value: 2.42 nM for the first, 47.7 nM for the second.

For B8, the “EC50” value was 57.5 nM.

Going from B4 to B6, the relative activity rises from 0.45% to 1.49%.

Going from B7 to B8, the relative activity falls from 0.13% to 0.06%.

What follows are binders tested against T1, GIP receptor (UniProt P48546 22-466) (assay: cell-based or functional assay).
T1 sequence (looked up): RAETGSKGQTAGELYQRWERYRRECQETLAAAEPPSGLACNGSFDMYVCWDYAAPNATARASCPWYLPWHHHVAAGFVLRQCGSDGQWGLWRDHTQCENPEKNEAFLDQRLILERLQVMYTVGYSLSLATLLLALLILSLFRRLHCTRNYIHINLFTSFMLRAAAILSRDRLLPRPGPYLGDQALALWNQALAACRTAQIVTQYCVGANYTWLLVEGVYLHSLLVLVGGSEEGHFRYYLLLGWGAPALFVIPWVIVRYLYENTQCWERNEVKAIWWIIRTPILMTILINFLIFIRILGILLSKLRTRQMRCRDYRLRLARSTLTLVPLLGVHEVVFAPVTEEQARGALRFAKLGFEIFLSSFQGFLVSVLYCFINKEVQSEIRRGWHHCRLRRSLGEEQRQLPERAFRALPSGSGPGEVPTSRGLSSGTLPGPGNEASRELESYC

First: B1
Second: B4
The “EC50” value of the first is 140-fold lower: 0.055 nM for the first, 7.54 nM for the second.

First: B5
Second: B6
The “EC50” value of the first is 24-fold lower: 0.08 nM for the first, 1.93 nM for the second.

In the case of B8, the “EC50” value is reported as 0.023 nM.

First: B4
Second: B6
The relative activity of the first is lower: 0.25% for the first, 0.93% for the second.

B8 showed a relative activity of 95.7%.

Molecular target: GLP-1 receptor (UniProt P43220 24-463, limits assumed)
Test: cell-based or functional assay
Remark: another data set of the same source

Compared with B9, B10 is 25-fold lower in “EC50” value: 0.23 nM for the first, 0.0092 nM for the second.

Compared with B11, B12 is 73-fold higher in “EC50” value: 0.0061 nM for the first, 0.448 nM for the second.

In the case of B13, the “EC50” value is reported as 2.68 nM.

Going from B9 to B12, the relative activity falls from 9.68% to 4.53%.

For B13, the relative activity was 0.83%.

What follows are binders tested against T2, GIP receptor (UniProt P48546 22-466) (assay: cell-based or functional assay).
T2 sequence (looked up): T1 sequence (looked up)

Compared with B9, B10 is 9.7-fold lower in “EC50” value: 0.0387 nM for the first, 0.004 nM for the second.

Going from B11 to B12, the “EC50” value rises from 0.0028 nM to 0.0968 nM (35-fold).

For B13, the “EC50” value was 0.0105 nM.

Going from B9 to B12, the relative activity falls from 30.2% to 10.6%.

Work on B13 yielded a relative activity of 111%.

Molecular target: glucagon receptor (UniProt P47871 26-477, limits assumed)
Test: cell-based or functional assay
Remark: another data set of the same source
Target sequence in this assay (P47871 26-477 limits assumed): as the sequence (P47871 26-477 limits assumed) above

Going from B9 to B10, the “EC50” value rises from 1.23 nM to 8.72 nM (7.1-fold).

Going from B11 to B12, the “EC50” value rises from 10.5 nM to 408 nM (39-fold).

With B13 the “EC50” value was 0.0915 nM.

First: B9
Second: B12
The relative activity of the first is higher: 6.41% for the first, 0.02% for the second.

B13 showed a relative activity of 86.5%.
